From patent US20060257938A1, “Method of screening for drugs that block ligand binding to a lipid binding protein” (priority 2005, published 2006)
Where “and” joins values, the source holds several entries; their conditions need not be identical. Equal entries are not always repeated.

Tests used:
Type in all cases: binding
[1] = Probe fluorescence ratio response to linolenic acid relative to ADIFAB2; settings: response relative to ADIFAB2
How it was run: (§1)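 Each fatty acid's response was expressed relative to ADIFAB2, the rI-FABP-L72A probe, as ΔR/ΔRreference. ΔR is the change in the background-corrected two-wavelength intensity ratio R=Fλ1/Fλ2 from its analyte-free baseline R0. Emission was read near about 420-480 nm for unbound and about 495-580 nm for FFA-bound probe.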

[2] = Probe fluorescence ratio response to palmitic acid relative to ADIFAB2; settings: response relative to ADIFAB2
How it was run: as §1

[3] = Probe fluorescence ratio response to linoleic acid relative to ADIFAB2; settings: response relative to ADIFAB2
How it was run: as §1

[4] = Probe fluorescence ratio response to oleic acid relative to ADIFAB2; settings: response relative to ADIFAB2
How it was run: as §1

[5] = Probe fluorescence ratio response to arachidonic acid relative to ADIFAB2; settings: arachidonic acid; response relative to ADIFAB2
How it was run: as §1

Molecule	DR/DR LNA [1]	DR/DR PA [2]	DR/DR LA [3]	DR/DR OA [4]	DR/DR AA [5]
17D, 72A (protein, listed as Rattus norvegicus, PEPTIDE (1)...(131) wild-type rat intestinal fatty acid binding protein) AFDGTWKVDRNENYEKDMEKMGINVVKRKLGAHDNLKLTITQEGNKFTVKESSNFRNIDVVFELGVDFAYSAADGTELTGTWTMEGNKLVGKFKRVDNGKELIAVREISGNELIQTYTYEGVEAKRIFKKE	0.34	0.16	0.31	0.26	0.28
17E, 72A (protein, listed as Rattus norvegicus, PEPTIDE (1)...(131) wild-type rat intestinal fatty acid binding protein) AFDGTWKVDRNENYEKEMEKMGINVVKRKLGAHDNLKLTITQEGNKFTVKESSNFRNIDVVFELGVDFAYSAADGTELTGTWTMEGNKLVGKFKRVDNGKELIAVREISGNELIQTYTYEGVEAKRIFKKE	0.88	0.53	0.90	0.84	0.80
17S, 72A (protein, listed as Rattus norvegicus, PEPTIDE (1)...(131) wild-type rat intestinal fatty acid binding protein) AFDGTWKVDRNENYEKSMEKMGINVVKRKLGAHDNLKLTITQEGNKFTVKESSNFRNIDVVFELGVDFAYSAADGTELTGTWTMEGNKLVGKFKRVDNGKELIAVREISGNELIQTYTYEGVEAKRIFKKE	0.61	0.25	0.56	0.47	0.50
102L, 72A (protein, listed as Rattus norvegicus, PEPTIDE (1)...(131) wild-type rat intestinal fatty acid binding protein) AFDGTWKVDRNENYEKFMEKMGINVVKRKLGAHDNLKLTITQEGNKFTVKESSNFRNIDVVFELGVDFAYSAADGTELTGTWTMEGNKLVGKFKRVDNGKELIAVREISGNELIQTYTYEGVEAKRIFKKE	1.41 and 1.284	0.97 and 1.012	1.40 and 1.267	1.40 and 1.366	1.25 and 1.103
17G, 72A (protein, listed as Rattus norvegicus, PEPTIDE (1)...(131) wild-type rat intestinal fatty acid binding protein) AFDGTWKVDRNENYEKGMEKMGINVVKRKLGAHDNLKLTITQEGNKFTVKESSNFRNIDVVFELGVDFAYSAADGTELTGTWTMEGNKLVGKFKRVDNGKELIAVREISGNELIQTYTYEGVEAKRIFKKE	0.62	0.28	0.58	0.52	0.48
17R, 72A (protein, listed as Rattus norvegicus, PEPTIDE (1)...(131) wild-type rat intestinal fatty acid binding protein) AFDGTWKVDRNENYEKRMEKMGINVVKRKLGAHDNLKLTITQEGNKFTVKESSNFRNIDVVFELGVDFAYSAADGTELTGTWTMEGNKLVGKFKRVDNGKELIAVREISGNELIQTYTYEGVEAKRIFKKE	0.48	0.22	0.52	0.45	0.43
17Q, 72A (protein, listed as Rattus norvegicus, PEPTIDE (1)...(131) wild-type rat intestinal fatty acid binding protein) AFDGTWKVDRNENYEKQMEKMGINVVKRKLGAHDNLKLTITQEGNKFTVKESSNFRNIDVVFELGVDFAYSAADGTELTGTWTMEGNKLVGKFKRVDNGKELIAVREISGNELIQTYTYEGVEAKRIFKKE	0.59	0.29	0.59	0.55	0.62
17I, 72A (protein, listed as Rattus norvegicus, PEPTIDE (1)...(131) wild-type rat intestinal fatty acid binding protein) AFDGTWKVDRNENYEKIMEKMGINVVKRKLGAHDNLKLTITQEGNKFTVKESSNFRNIDVVFELGVDFAYSAADGTELTGTWTMEGNKLVGKFKRVDNGKELIAVREISGNELIQTYTYEGVEAKRIFKKE	0.54 and 0.541	0.28 and 0.283	0.50 and 0.499	0.62 and 0.624	0.64
17K 72A (protein, listed as Rattus norvegicus, PEPTIDE (1)...(131) wild-type rat intestinal fatty acid binding protein) AFDGTWKVDRNENYEKKMEKMGINVVKRKLGAHDNLKLTITQEGNKFTVKESSNFRNIDVVFELGVDFAYSAADGTELTGTWTMEGNKLVGKFKRVDNGKELIAVREISGNELIQTYTYEGVEAKRIFKKE	0.29	0.13	0.33	0.31	0.28
17P, 72A (protein, listed as Rattus norvegicus, PEPTIDE (1)...(131) wild-type rat intestinal fatty acid binding protein) AFDGTWKVDRNENYEKPMEKMGINVVKRKLGAHDNLKLTITQEGNKFTVKESSNFRNIDVVFELGVDFAYSAADGTELTGTWTMEGNKLVGKFKRVDNGKELIAVREISGNELIQTYTYEGVEAKRIFKKE	0.63	0.24	0.60	0.55	0.51
17N, 72A (protein, listed as Rattus norvegicus, PEPTIDE (1)...(131) wild-type rat intestinal fatty acid binding protein) AFDGTWKVDRNENYEKNMEKMGINVVKRKLGAHDNLKLTITQEGNKFTVKESSNFRNIDVVFELGVDFAYSAADGTELTGTWTMEGNKLVGKFKRVDNGKELIAVREISGNELIQTYTYEGVEAKRIFKKE	0.51	0.22	0.50	0.49	0.47
17H, 72A (protein, listed as Rattus norvegicus, PEPTIDE (1)...(131) wild-type rat intestinal fatty acid binding protein) AFDGTWKVDRNENYEKHMEKMGINVVKRKLGAHDNLKLTITQEGNKFTVKESSNFRNIDVVFELGVDFAYSAADGTELTGTWTMEGNKLVGKFKRVDNGKELIAVREISGNELIQTYTYEGVEAKRIFKKE	0.50	0.22	0.48	0.40	0.52
17M, 72A (protein, listed as Rattus norvegicus, PEPTIDE (1)...(131) wild-type rat intestinal fatty acid binding protein) AFDGTWKVDRNENYEKMMEKMGINVVKRKLGAHDNLKLTITQEGNKFTVKESSNFRNIDVVFELGVDFAYSAADGTELTGTWTMEGNKLVGKFKRVDNGKELIAVREISGNELIQTYTYEGVEAKRIFKKE	0.53 and 0.532	0.28 and 0.281	0.49 and 0.489	0.49	0.59
17F, 72A (protein, listed as Rattus norvegicus, PEPTIDE (1)...(131) wild-type rat intestinal fatty acid binding protein) AFDGTWKVDRNENYEKFMEKMGINVVKRKLGAHDNLKLTITQEGNKFTVKESSNFRNIDVVFELGVDFAYSAADGTELTGTWTMEGNKLVGKFKRVDNGKELIAVREISGNELIQTYTYEGVEAKRIFKKE	1.38	1.14	1.35	1.42	1.37
17T, 72A (protein, listed as Rattus norvegicus, PEPTIDE (1)...(131) wild-type rat intestinal fatty acid binding protein) AFDGTWKVDRNENYEKTMEKMGINVVKRKLGAHDNLKLTITQEGNKFTVKESSNFRNIDVVFELGVDFAYSAADGTELTGTWTMEGNKLVGKFKRVDNGKELIAVREISGNELIQTYTYEGVEAKRIFKKE	0.51	0.25	0.51	0.49	0.50
17L, 72A (protein, listed as Rattus norvegicus, PEPTIDE (1)...(131) wild-type rat intestinal fatty acid binding protein) AFDGTWKVDRNENYEKLMEKMGINVVKRKLGAHDNLKLTITQEGNKFTVKESSNFRNIDVVFELGVDFAYSAADGTELTGTWTMEGNKLVGKFKRVDNGKELIAVREISGNELIQTYTYEGVEAKRIFKKE	0.45 and 0.447	0.28 and 0.279	0.42	0.46 and 0.459	0.52 and 0.525
17V, 72A (protein, listed as Rattus norvegicus, PEPTIDE (1)...(131) wild-type rat intestinal fatty acid binding protein) AFDGTWKVDRNENYEKVMEKMGINVVKRKLGAHDNLKLTITQEGNKFTVKESSNFRNIDVVFELGVDFAYSAADGTELTGTWTMEGNKLVGKFKRVDNGKELIAVREISGNELIQTYTYEGVEAKRIFKKE	0.59 and 0.586	0.31 and 0.308	0.55 and 0.549	0.56 and 0.558	0.64 and 0.639
